Experimental findings from patent US20070066516A1, “Compounds comprising cyclized somatostatin receptor binding peptides” (priority 2005, published 2007) are described below.

Read-outs that look alike come from different tables or passages of the source. Where a SMILES comes first, the peptide text is derived from it. Bridges are numbered along the chain shown (N, C = ends). Roman numbers before positions name the chains, in order. Where no end group is shown, it is not given here. [ ]: non-standard residue; d: D form. βDpr = 2,3-diaminopropanoic acid whose beta-amino group bears the -CH2CO- link to the S of (NMe)hCys; GlyMeDOTA = DOTA chelator on the lysine side chain; Tpi = O=C(O)[C@@H]1Cc2c([nH]c3ccccc23)CN1; βAla(cyclopropyl) = beta-Ala(cyclopropyl); Dip = N[C@H](C(=O)O)C(c1ccccc1)c1ccccc1; Phe(4-NH2) = Nc1ccc(C[C@H](N)C(=O)O)cc1; 1Nal = N[C@@H](Cc1cccc2ccccc12)C(=O)O; NMeF = CN[C@@H](Cc1ccccc1)C(=O)O; NMehCys = CN[C@@H](CCS)C(=O)O; Thz = O=C(O)[C@@H]1CSCN1; Dap = NC[C@H](N)C(=O)O

One assay concerns the target SSTR5 (Homo sapiens, UniProt P35346). Description: Radioligand binding assay on membranes of CHO-K1 cells expressing SSTR5. The note with it: for IC50: membranes from CHO-K1 cells stably expressing cloned somatostatin receptor 5; for Ratio 2/5 in %: ratio of IC50 SSTR2 / IC50 SSTR5 in %. As for the experimental part: (§1) Radiolabeling binding assays were carried out as described in the prior art like, e.g. in Gazal S. et al (2002) J. Med. Chem. 45: 1665-1671. The radioligand binding assays were carried out on membranes prepared from CHO-K1 cells stably expressing individually cloned somatostatin receptors 2 or 5 (SSTR2 or SSTR5). Cells were grown for 2 days for almost confluence and were washed and scraped into 50 mM ice-cold Tris-HCl, pH 7.8, containing 1 mM EGTA, 5 mM MgCl2, […], 0.1 mM PMSF, and 0.5 mg/mL aprotinin (buffer A) and were centrifuged at 10,000 rpm for 10 min at 4° C. (in Sorvall RC 26 Plus ultracentrifuge, rotor SS-34). The pellet was resuspended in buffer A and homogenized with a Polytron PT 1200 homogenizer (Kinematica AG, Switzerland) (setting 2, 3 strokes 10 s each). The homogenate was then centrifuged at 20 000 rpm for 20 min at 4° C. The pellet was resuspended in buffer A and homogenized using the Polytron homogenizer (setting 2, 3 strokes 5 s each). The protein content was determined by Bradford, and the membrane preparation was diluted in buffer A containing 1 mg/mL bovine serum albumin (BSA) to a final 0.2 or 0.4 mg/mL membrane protein (depending on the specific somatostatin receptor used).
(§2) The radioligand binding assay was performed in 96 well microtiter plates (Maxisorp plates, Nunc, Denmark). Cell membranes ([…] protein) were incubated with the various cyclized peptides indicated in Table 1 & 2, which comprised a lanthanide chelation unit, in a final volume of 250 μL, for 45 min. at room temperature in the presence or absence of competing peptides. Nonspecific binding was defined as the radioactivity remaining bound in the presence of […] somatostatin. At the end of the binding, reaction free radioligand was separated from bound Ligand by rapid filtration through UniFilter GF/C plates preincubated in a solution of 5 g/L polyethyleneimine and 1 g/L BSA. The filtration was performed in Filter-Mate Cell Harvester (Packard Instrument Company, U.S.A.). After filtration, the filters were washed several times with cold buffer A containing 1 mg/mL BSA and allowed to dry overnight at room temperature. Then, bound radioactivity was counted. The binding assays were performed in triplicate wells. Data from radioligand binding were used to generate inhibition curves, and IC50 values were determined for each of the tested peptides. The saturation binding data were analyzed by the method of Scatchard, and IC50 values are expressed as mean±SEM (standard error of the mean).

For a further assay, the target named is SSTR2 (Homo sapiens, UniProt P30874). Description: Radioligand binding assay on membranes of CHO-K1 cells expressing SSTR2. The note with it: membranes from CHO-K1 cells stably expressing cloned somatostatin receptor 2. Here is the method: as §1, §2
Chain of SSTR2 (P30874 whole entry): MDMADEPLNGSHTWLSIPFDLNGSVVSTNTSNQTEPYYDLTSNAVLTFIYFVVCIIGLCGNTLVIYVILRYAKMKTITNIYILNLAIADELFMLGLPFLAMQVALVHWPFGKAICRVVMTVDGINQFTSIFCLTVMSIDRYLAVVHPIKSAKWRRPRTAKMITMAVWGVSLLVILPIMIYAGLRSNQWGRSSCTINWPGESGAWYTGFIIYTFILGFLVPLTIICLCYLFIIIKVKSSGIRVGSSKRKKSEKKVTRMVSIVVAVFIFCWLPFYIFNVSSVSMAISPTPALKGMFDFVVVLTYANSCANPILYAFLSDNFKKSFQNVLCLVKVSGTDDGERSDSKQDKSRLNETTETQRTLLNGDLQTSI
In assay [1] the target is T1, somatostatin receptor 5 (UniProt P35346 1-364, limits assumed).
T1 construct: whole, on cells; Assayed as membrane preparation of CHO-K1 cells stably expressing the cloned receptor; also called SSTR5; somatostatin receptor subtype 5
T1 sequence (P35346 whole entry): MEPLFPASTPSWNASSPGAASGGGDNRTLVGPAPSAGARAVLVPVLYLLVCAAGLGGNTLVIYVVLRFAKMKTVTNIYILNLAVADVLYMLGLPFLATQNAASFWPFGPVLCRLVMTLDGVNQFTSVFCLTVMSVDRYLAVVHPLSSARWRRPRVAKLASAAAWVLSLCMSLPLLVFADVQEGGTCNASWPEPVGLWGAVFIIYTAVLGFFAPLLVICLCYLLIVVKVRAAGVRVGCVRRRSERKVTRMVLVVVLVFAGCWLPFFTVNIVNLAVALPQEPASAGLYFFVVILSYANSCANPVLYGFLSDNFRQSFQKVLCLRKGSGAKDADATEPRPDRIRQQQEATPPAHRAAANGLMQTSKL
Description: ratio of IC50 on SSTR2 to IC50 on SSTR5 (reference SSTR2), radioligand competition binding on CHO-K1 membranes.

The target of assay [2] is T2, somatostatin receptor 2 (UniProt P30874 1-369, limits assumed).
T2 construct: whole, on cells; Assayed as membrane preparation of CHO-K1 cells stably expressing the cloned receptor; also called SSTR2; somatostatin receptor subtype 2
T2 sequence (P30874 whole entry): as the sequence (P30874 whole entry) above
Put plainly: radioligand competition binding, membranes of CHO-K1 cells expressing SSTR2.

The target of assay [3] is T1, somatostatin receptor 5. Put plainly: radioligand competition binding, membranes of CHO-K1 cells expressing SSTR5.
Assay [4] addresses T1, somatostatin receptor 5. Put plainly: ratio of IC50 on SSTR2 to IC50 on SSTR5 (reference SSTR2), radioligand competition binding on CHO-K1 membranes. This is another data set of the same source.
Assay [5] concerns the target T1, somatostatin receptor 5. Description: radioligand competition binding, membranes of CHO-K1 cells expressing SSTR5. This is another data set of the same source.
The target in assay [6] is T2, somatostatin receptor 2. Put plainly: radioligand competition binding, membranes of CHO-K1 cells expressing SSTR2. The source holds these as a separate data set.

Chain of SSTR5 (P35346 whole entry): as the sequence (P35346 whole entry) above

Regarding `CSCC[C@@H]1NC(=O)[C@H]([C@@H](C)O)NC(=O)[C@H](CCCCN)NC(=O)[C@@H](Cc2c[nH]c3ccccc23)NC(=O)[C@@H]2CSCN2C(=O)[C@H](Cc2ccccc2)NC1=O` [P2297, cyclo[ThioPro-DTrp-Lys-Thr-Met-Phe]] (cyclo([Thz][dW]KTMF)), on SSTR5, the IC50 was 34.5 nM and the “Ratio 2/5 in %” value worked out at 37.1%. On SSTR2, this molecule gave a half-maximal inhibitory concentration (IC50) of 12.8 nM.

On to `CSCC[C@@H]1NC(=O)[C@H]([C@@H](C)O)NC(=O)[C@H](CCCCN)NC(=O)[C@@H](Cc2c[nH]c3ccccc23)NC(=O)[C@H](C(c2ccccc2)c2ccccc2)NC(=O)[C@H](Cc2ccccc2)N(C)C1=O` [P2326, cyclo[DiphenylAla-DTrp-Lys-Thr-Met-(N-Me)Phe]] (cyclo([Dip][dW]KTM[NMeF])), for which, on SSTR5, the IC50 was found to be 42.2 nM and the “Ratio 2/5 in %” value was 0.42%. Besides, on SSTR2, the IC50 was 0.177 nM.

In the case of `CSCC[C@@H]1NC(=O)[C@H](C(C)C)NC(=O)[C@H](CCCCN)NC(=O)[C@@H](Cc2c[nH]c3ccccc23)NC(=O)[C@H](Cc2cccc3ccccc23)NC(=O)[C@H](Cc2ccccc2)N(C)C1=O` [P2329, cyclo[1Nal-DTrp-Lys-Val-Met-(N-Me)Phe]] (cyclo([1Nal][dW]KVM[NMeF])), on SSTR5, the IC50 was 4.17 nM and the “Ratio 2/5 in %” value is reported as 10.5%. Besides, the IC50 at SSTR2 was determined as 0.437 nM.

B1: P2267 (peptide)
peptide: cyclo(Y[dW]K[Dap]M[NMeF])
SMILES: CSCC[C@@H]1NC(=O)[C@H](CN)NC(=O)[C@H](CCCCN)NC(=O)[C@@H](Cc2c[nH]c3ccccc23)NC(=O)[C@H](Cc2ccc(O)cc2)NC(=O)[C@H](Cc2ccccc2)N(C)C1=O
notes: Cyclic hexapeptide; also called cyclo[Tyr-DTrp-Lys-Dpr-Met-(NMe)Phe]
As to B1, in the assay with somatostatin receptor 5 [1], the “Ratio 2/5 in %” value was determined as 1.9%. The results for the IC50 in the assay with somatostatin receptor 2 [2] and with somatostatin receptor 5 [3] were 0.501 nM and 25.9 nM, respectively.

B2: P2323 (peptide)
peptide: cyclo([1Nal][dW]KTK(GlyMeDOTA)[NMeF])
notes: Cyclic hexapeptide carrying a DOTA chelator on Lys 5; also called cyclo[1Nal-DTrp-Lys-Thr-Lys(GlyMeDOTA)-(N-Me)Phe]
With B2, the “Ratio 2/5 in %” value with somatostatin receptor 5 [1] was found to be 399%. Moreover, the values for the IC50 in the assay with somatostatin receptor 2 [2] and with somatostatin receptor 5 [3] were 37.4 nM and 9.37 nM, respectively.

B3: ReP2045 (peptide)
peptide 1: Y[dW]KTF[NMehCys]
peptide 2: [βDpr][Phe(4-NH2)]CTS-OH
modifications: thioether I:6-II:1 via CH2CO; not fully specified; also: head-to-tail to a chain's N/C-terminus
notes: also called cyclo[Tyr-DTrp-Lys-Thr-Phe-(NMe)hCys]-CH2CO-βDpr-Phe(4-NH2)-Cys-Thr-Ser-OH-[R = 0]
Regarding B3, the “Ratio 2/5 in %” value with somatostatin receptor 5 [4] is 0.014%. The IC50 with somatostatin receptor 5 [5] was found to be 627 nM; with somatostatin receptor 2 [6], 0.089 nM.

B4: P2274 (peptide)
peptide: cyclo(Y[dW]KTM[Tpi])
SMILES: CSCC[C@@H]1NC(=O)[C@H]([C@@H](C)O)NC(=O)[C@H](CCCCN)NC(=O)[C@@H](Cc2c[nH]c3ccccc23)NC(=O)[C@H](Cc2ccc(O)cc2)NC(=O)[C@@H]2Cc3c([nH]c4ccccc34)CN2C1=O
notes: Cyclic hexapeptide; also called cyclo[Tyr-DTrp-Lys-Thr-Met-Tpi]
As to B4, the “Ratio 2/5 in %” value with somatostatin receptor 5 [1] worked out at 6.1%. The IC50 in the assay with somatostatin receptor 2 [2] worked out at 1.22 nM; with somatostatin receptor 5 [3], 19.9 nM.

B5: P2045 (peptide)
peptide 1: Y[dW]KTF[NMehCys]
peptide 2: [βDpr][Phe(4-NH2)]CTS-OH
modifications: thioether I:6-II:1 via CH2CO; also: head-to-tail to a chain's N/C-terminus
notes: also called cyclo[Tyr-DTrp-Lys-Thr-Phe-(NMe)hCys]-CH2CO-βDpr-Phe(4-NH2)-Cys-Thr-Ser-OH
Regarding B5, the “Ratio 2/5 in %” value with somatostatin receptor 5 [4] was 0.084%. In addition, the figures for the IC50 with somatostatin receptor 5 [5] and in the assay with somatostatin receptor 2 [6] were 249 nM and 0.21 nM, respectively.

B6: P2300 (peptide)
peptide: cyclo(Y[dW]K[βAla(cyclopropyl)]M[NMeF])
notes: Cyclic hexapeptide; also called cyclo[Tyr-DTrp-Lys-BAla(cyclopropyl)-Met-(N-Me)Phe]
Take B6: in the assay with somatostatin receptor 5 [1], the “Ratio 2/5 in %” value turned out to be 0.96%. For the same molecule, the IC50 is 0.198 nM with somatostatin receptor 2 [2] and 20.7 nM with somatostatin receptor 5 [3].

B7: P1839 (peptide)
peptide: cyclo(Y[dW]KTF[NMehCys])
SMILES: C[C@@H](O)[C@@H]1NC(=O)[C@H](CCCCN)NC(=O)[C@@H](Cc2c[nH]c3ccccc23)NC(=O)[C@H](Cc2ccc(O)cc2)NC(=O)[C@H](CCS)N(C)C(=O)[C@H](Cc2ccccc2)NC1=O
notes: Known somatostatin analogue tested as comparison; also called cyclo[Tyr-DTrp-Lys-Thr-Phe-(NMe)hCys]
B7: in the assay with somatostatin receptor 5 [4], the “Ratio 2/5 in %” value was 0.15%.

B8: P2269 (peptide)
peptide: cyclo(W[dW]KTM[NMeF])
SMILES: CSCC[C@@H]1NC(=O)[C@H]([C@@H](C)O)NC(=O)[C@H](CCCCN)NC(=O)[C@@H](Cc2c[nH]c3ccccc23)NC(=O)[C@H](Cc2c[nH]c3ccccc23)NC(=O)[C@H](Cc2ccccc2)N(C)C1=O
notes: also called cyclo[Trp-DTrp-Lys-Thr-Met-(NMe)Phe]
Turning to B8, in the assay with somatostatin receptor 5 [1], the “Ratio 2/5 in %” value was 15.3%. The IC50 in the assay with somatostatin receptor 2 [2] came out at 0.501 nM; in the assay with somatostatin receptor 5 [3] it was 3.27 nM.
